Entries after “also recorded” stand apart in the source; their conditions may differ.
Assays:
[1] = target: T1, CTCF zinc finger domains 4–8 (residues 348–494), MBP-fused (Homo sapiens, UniProt P49711); test: Biolayer interferometry (BLI), immobilised BRK-BRG1 vs MBP-fused CTCF zinc fingers 4–8; assay type: binding
T1 construct: and 4–8 (residues 348–494) in a bacterial expression system; made in house; host or cells: E. coli BL21
Protocol: (§1) 4.8. Recombinant CTCF Zinc Finger Domains 1–11 and 4–8 Expression and Purification
(§2) The plasmids CTCF-ZF1-11-pMalC2G and CTF-ZF4-8-pMalC2G, obtained as previously reported, were used to transform E. coli BL21 host strain. Transformed colonies were inoculated in LB 0.2% glucose medium and grown a 37 °C, until the culture reached the optical density of 0.6 nm at 600 nm (OD600). At this point of growth, 200 µM ZnSO4 was added to the culture and the expression of the protein was induced by using IPTG 0.3 mM. When the culture reached 0.9 OD600, bacterial cells were harvested by centrifugation. Pellets were resuspended in PBS (pH 7.4) and lysed by sonication on ice. Lysates were centrifuged for 30 min at 27.500 relative centrifugal force and the supernatants containing the expressed proteins were loaded on amylose resin (New England Biolabs, Milan, Italy), according to the manufacturer’s protocol, and incubated overnight under rotation. Following washes with 1X PBS, the purified proteins MBP-CTF-ZF4-8 and MBP-CTCF-ZF1-11 were obtained adding maltose elution buffer (10 mM maltose, 1X PBS). Then, the affinity-purified proteins were loaded onto an HiLoad 26/60 Superdex 75 gel filtration chromatography column (GE Healthcare, Milan, Italy) equilibrated and eluted with PBS. The purified products were finally concentrated using a Amicon Ultra Centrifugal Filter (Merck).
4.9. […]

[2] = target: T2, CTCF zinc finger domains 1–11 (residues 263–582), MBP-fused (Homo sapiens, UniProt P49711); test: Biolayer interferometry (BLI), immobilised BRK-BRG1 vs MBP-fused CTCF zinc fingers 1–11; assay type: binding
T2 construct: CTCF zinc finger domains 1–11 (residues 263–582) and 4–8 (residues 348–494); made in house; host or cells: E. coli BL21
Protocol: as §1, §2
4.9. […]

[3] = target: T3, MBP-fused CTCF zinc finger domains 4–8 (residues 348–494) (human, UniProt P49711 348-494); test: BLI; synthetic BRK-BRG1 immobilised on ARG2 biosensor by EDC/NHS (BLItz); MBP-fused CTCF zinc finger domains as analytes in PBS; free MBP signal subtracted; KD from plateau shifts, one binding site hyperbola; conditions: both partners purified
T3 construct: CTCF zinc finger domains 4-8, residues 348-494; also called MBP-CTF-ZF4-8; CTCF domains 4–8; source: E. coli BL21, purified (amylose resin, Superdex 75 gel filtration)
T3 sequence (looked up): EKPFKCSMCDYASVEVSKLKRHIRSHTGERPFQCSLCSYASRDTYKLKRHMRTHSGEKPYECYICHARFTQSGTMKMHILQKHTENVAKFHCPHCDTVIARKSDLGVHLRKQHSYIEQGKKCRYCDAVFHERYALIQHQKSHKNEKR

[4] = target: T4, MBP-fused CTCF zinc finger domains 1–11 (residues 263–582) (human, UniProt P49711 263-582); test: as above; conditions: both partners purified
T4 construct: CTCF zinc finger domains 1-11, residues 263-582; also called MBP-CTCF-ZF1-11; CTCF domains 1–11; source: E. coli BL21, purified (amylose resin, Superdex 75 gel filtration)
T4 sequence (looked up): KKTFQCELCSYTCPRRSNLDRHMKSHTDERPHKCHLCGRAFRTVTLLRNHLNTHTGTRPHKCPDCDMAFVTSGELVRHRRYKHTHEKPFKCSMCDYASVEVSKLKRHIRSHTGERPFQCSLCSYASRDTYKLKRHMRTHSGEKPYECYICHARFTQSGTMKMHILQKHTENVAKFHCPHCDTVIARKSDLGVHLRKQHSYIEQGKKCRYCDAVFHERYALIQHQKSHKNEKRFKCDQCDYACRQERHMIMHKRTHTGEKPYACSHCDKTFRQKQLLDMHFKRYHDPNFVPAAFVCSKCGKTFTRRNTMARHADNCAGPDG

[5] = tested on: BRK-BRG1 (BRK domain of human BRG1, region 612–656); test: BLI detection limit, MBP-fused CTCF zinc finger domains on immobilised BRK-BRG1; assay type: binding; conditions: PBS
Protocol: 4.9. Binding of BRK-BRG1 to Recombinant CTFC Multiple Zinc Finger Domains by Biolayer Interferometry (BLI)
BLI measurements were performed using a BLItz system and ARG2 commercial biosensors (ForteBio, CA, United States), following the manufacturer’s instructions. A reduced volume sample cuvette (4 µL) was used for all the experiments. Assays were performed by immobilizing the synthetic BRK-BRG1 domain on the surface of the sensor chip and exposing it to solutions of recombinant CTFC domain 1–11 or CTCF domains 4–8, both fused to MBP, dissolved in PBS at increasing concentrations. After pre-hydration for 10 min in PBS buffer, the immobilization was achieved by pre-activating the sensor surface for 180 s with EDC/NHS, both in water, at 0.4 M and 0.1 M, respectively. Then, the sensor chip was exposed for 300 s to a solution of BRK-BRG1 at 200 µg/mL in sodium acetate pH 4.5. After extensive washing with buffer, the sensor chip surface was deactivated using 1 M ethanolamine in water pH 8.5 for 180 s. Binding assays were performed after exposure for 30 s to PBS (running buffer) to acquire the initial baseline. Next, the derivatized chip was exposed to the CTFC protein solutions in PBS for 120 s, followed by PBS washes (120 s). Then, the sensor chip was fully regenerated, restoring the baseline, by treatment with a solution of NaOH 5 mM for 10 s and a further wash with PBS. […]

[6] = Precipitation of MBP-fused CTCF domains 1–11 in PBS; assay type: physicochemical; conditions: concentrations higher than 3.0 µM
Protocol: as §2, with “(Merck). […]” for “(Merck).”

Ac-MSDLPVKVIHVESGKILTGTDAPKAGQLEAWLEMNPGYEVAPRSD-NH2 [BRK-BRG1]
direct binding to CTCF zinc fingers 4–8, result in words [1]: direct binding; also recorded: the region encompassing domains from 4 to 8 strongly contributes to this interaction; also recorded: binds the zinc finger motifs 4–8 of CTCF | direct binding to CTCF zinc finger region 1–11, result in words [2]: binds the CTCF region including the eleven zinc finger domains

B1: BRK domain of BRG1, region 612–656, synthetic polypeptide (peptide)
chain: Ac-MSDLPVKVIHVESGKILTGTDAPKAGQLEAWLEMNPGYEVAPRSD-NH2
notes: BRK domain of human BRG1, region 612-656; Coupled to the BLI sensor by EDC/NHS chemistry; also called BRK-BRG1; BRK-BRG1 domain; source: synthetic peptide (solid phase synthesis, purified by RP-HPLC)
Kd [3]: ~95 nM | Kd [4]: ~2300 nM

B2: MBP-fused CTFC domains 1–11: recombinant maltose-binding protein (MBP)-fused CTCF zinc finger domains 1–11 (residues 263–582) (protein)
chain: T4 sequence (looked up)
modifications: left off: MBP, end not stated, kept
BLI shift at low concentration, domains 1–11 ([5]; solutions at concentrations below 0.5 µM): No shifts were measured | precipitation of the protein [6]: the protein underwent precipitation

B3: MBP-fused CTFC domain 4–8: recombinant maltose-binding protein (MBP)-fused CTCF zinc finger domains 4–8 (residues 348–494) (protein)
chain: T3 sequence (looked up)
modifications: left off: MBP, end not stated, kept
BLI shift at low concentration, domains 4–8 ([5]; solutions at concentrations below 10 nM): No shifts were measured

Reference: paper PMC7728349, “Exploring the Interaction between the SWI/SNF Chromatin Remodeling Complex and the Zinc Finger Factor CTCF” (International Journal of Molecular Sciences, 2020)
